Assay results reported in the supplement of paper PMC12042874.
± gives the uncertainty stated by the source.

assay: amyloid nucleation score (Sup35N fusion, yeast selection) (log enrichment); library NNK1; higher = more nucleation; inactive = no reads after selection
Procedure, shortened: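 Peptides of 20 random codons fused to Sup35N were expressed in psi-negative yeast, induced 24 hours with 100 μM copper sulfate, then grown 7 days at 30°C on medium lacking adenine and uracil. Input and output plasmid inserts were Illumina-sequenced. Nucleation score is the DiMSum log enrichment of output over input reads, centred on the mode score of non-aggregating sequences, excluding sequences with under 100 input reads. Random libraries had three technical output replicates.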

Substance | amyloid nucleation score
DSGCRTRVTLSRGFYRTFSS | 1.2 ± 0.6
WDRTTCVYSLLPMGNSPKVE | 0.144 ± 0.45
ILYMWWVRPLVQAQENRRRY | -0.089 ± 0.39
SLNSPL | 0.391 ± 0.85
WILVGMGLGFHFFW | 0.86 ± 1.1
QVALYKVVVYKTWDVGFPSC | 0.988 ± 0.9
RYTRSGLIDMFTNSSTDAHS | 0.115 ± 0.43
MKDSGCPSGNNTALEGASLI | 0.269 ± 0.49
RRAPLNLTREVSSVWEWRII | -0.631 ± 0.68
VRVEKNCNFWLFSIVSCLPH | 8.49 ± 0.065
MIMKYLSDVLTRIGHDIFFA | -0.872 ± 1.4
EKHEVVCIVKTVR | 0.424 ± 0.85
FSMLIDEELDFSAETSLRHG | 0.637 ± 0.59
PYYHHVGVGYAFYVICVRAF | inactive
SRLRLGIRTDLG | 0.218 ± 0.54
TALRLTSSSIKIATQVDLKF | 2.06 ± 0.16
RFCLAVGLRMGYFLGCSDFR | -0.45 ± 1.4
FTLRSDVAQQVIDDMGAVGS | -1.11 ± 1.5
VMLTPRDLGLVPIGLDHVRG | -0.236 ± 0.38
GIGAVSAC | 0.317 ± 0.56
PYFVIKSRWGQNRS | inactive
VMGVLYSRADSVVEIGLLRV | -0.972 ± 1

Substance | amyloid nucleation score
HSVLVVSVVHCGFKQKRNK | 3.98 ± 0.15
MYNNTALRRSEYADCH | 0.872 ± 0.8
RYWCCSPVRSLVHGRHCEV | 1.52 ± 0.24
TEKTVRCDLTWQTHLLLCFA | -0.369 ± 0.83
YSSSRRDCRRPGTMYRPLPQ | -0.547 ± 0.55
PNLMLAFVL | 1.14 ± 0.41
QDRENLNCIHY | 1.24 ± 0.31
ECRMYLLTLVARRSRNPDNC | 1.03 ± 0.61
DYLLCLILAKVWDDSNGSWV | 1.52 ± 0.5
SFIIVYY | 1.84 ± 0.19
GFYIDDYES | -1.39 ± 2.7
WNSSYDGRFIAYAMQWSNKE | -0.118 ± 0.48
NSIYHYIVNTFYLNFMGWIE | 1.25 ± 0.79
FYLFVMKDASILYLVCSFSF | -0.46 ± 0.4
QGLADNKSSFKGV | 0.591 ± 1
LKTWVDFRDYLLAPKAVCIY | 0.161 ± 0.57
LSLSLMLGDIPSTIMRGCFR | inactive
AASVSCNLQQKAKRVAFFLM | 0.726 ± 1.1
DSWEYFLP | -0.375 ± 0.53
VRMKPCSLLNLGTYPAQNVM | -0.888 ± 1.9
CVKERELIFFWYVVRSEYDL | -0.485 ± 0.47
QSSSYERLKQTGKLSFYIDF | -0.069 ± 0.61

Substance | amyloid nucleation score
RFMYAISSVTRYPMWPGMMQ | 2.45 ± 0.18
VGISMHFRSRENFQSN | inactive
AQQLGMMGVGFMQRWNCRF | -1.74 ± 2.4
MASTESNPIKLLKVHLKYTS | -0.97 ± 1.4
YIYYSNFCPDRLIVFINAMT | inactive
LVMTNIVLRSVKERVHRLLR | -0.46 ± 0.81
NMSESCNMDTLYGYDLRQWV | 0.088 ± 0.33
FSPLCKPLNSWYNQVKYRRH | 0.131 ± 0.84
ANIYGWDDPYFEQL | 0.045 ± 0.75
RGIYWVSFVLSGRIIGWMVG | 0.275 ± 0.8
DTKCMMENRAIVMFCIQGKH | 0.827 ± 0.3
FRYLVKYRVLH | 0.14 ± 0.44
HFQKYKELVVSKHN | 0.743 ± 1.1
LGGFYTRRCVCSLGTRQERE | -0.072 ± 0.49
TILYVVARYF | -0.004 ± 0.35
CRPVGSTVVSVDNGTS | -0.188 ± 0.37
DMMAIGSTTVCLVLRFFGKM | -0.929 ± 2.7
DDSHVSCDYTLYGWSFGYMC | 2.37 ± 0.1
EASLAPYEESELA | 1.76 ± 0.54
SKNAWRVKNKSEFAV | 0.488 ± 0.69
SGQMSLWSYL | 0.781 ± 0.59
RPFRLYECCCDGELFLN | -0.997 ± 0.51

Substance | amyloid nucleation score
RVGWMLNGAGALWFFRYKLN | -0.256 ± 0.7
GTSVN | 1.08 ± 0.17
PAALAWTNFLKASYDLKMGA | -0.587 ± 1.3
LGAMRLFTRSLFLADWKYDV | -0.04 ± 0.45
GESHPFNVFRYCL | 1.42 ± 0.14
YRAAQGHLASELYGLVTV | 0.36 ± 0.69
MLWSKKGTGNYRYCRTGYTG | 0.322 ± 0.49
VRRSEHSRLSYEWGECLRLT | -0.174 ± 0.38
CSLNLNCVS | 3.76 ± 0.13
RCRAVELLEVRRLQMRSGHH | -0.295 ± 0.34
SCGWDLVCGMMAVHSSGIVL | 0.975 ± 0.42
NDSICIVVLS | -0.009 ± 0.84
GGGEATLREFFKECGK | -0.603 ± 0.35
IWWFGSILFLRQSWYKIWSC | -0.877 ± 0.39
AKVYSGIPWWNFSTFLRGEV | -0.668 ± 1.4
TLIIGYRA | 0.964 ± 0.51
KRPSMM | -0.18 ± 0.3
GSNPVVSLW | 0.076 ± 0.44
QYIVW | 0.142 ± 0.32
TFSFTAYNPCFDSFSTVGLS | -0.147 ± 0.45
